Test results reported in the supplement of paper PMC10567573.

B1: BRF1 (parent)
chain: FVESSGGGSSAVGQFVSLDGAGKT
B2: ANKRD9 (parent)
chain: VGAAGSARQELLGDRPRWQRLLGE

Variants of: B1
Assay: protein stability index of a GFP-peptide fusion (GPS, HEK-293T) (PSI 1-6); higher = more stable
Details: c terminus: a fixed tail appended
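Also: lentivirally expressed fusions sorted by FACS into six bins by GFP to DsRed ratio, PSI derived from sequencing read proportions per bin multiplied by bin number.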

Protein stability index, by site and new letter:
G8: K 2.89; L 2.06; M 1.71; N 2.12; P 2.08; Q 3.27; R 1.32; S 2.06; T 2.52; V 1.95; Y 2.46
S9: A 2.2; C 2.22; D 3.03; E 3.38; F 1.49; G 2.36; H 2.17; I 2.39; K 1.72; L 1.77; M 1.99; N 2.38; P 1.5; Q 2.22; R 1.68; T 2.29; V 2.58; W 2.93; Y 2.82
S10: C 1.33; D 2.75; E 2.31; G 2.23; H 1.99; I 1.37; K 1.42; L 1.81; M 1.46; N 2.31; P 2.57; Q 2.53; R 1.98; T 2.72; V 1.96; Y 1.64
A11: C 1.58; D 2.68; E 3.28; F 2.02; G 2.28; H 1.9; I 2.41; K 1.41; L 1.77; M 1.63; N 2; P 2.42; Q 2.61; R 1.39; S 1.95; T 2.06; V 2.4; Y 1.64
V12: A 2.2; C 2.37; D 3.13; E 2.87; F 2.01; G 2.37; H 2.25; I 2.09; K 2.88; L 1.95; M 2.52; N 3.08; P 1.86; R 2.51; S 2.43; T 1.86; W 3.19; Y 1.29
G13: C 1.92; D 3.3; E 2.96; F 4.42; H 1.84; I 1.02; K 2.06; L 2.05; M 1.66; N 1.81; P 2.18; Q 1.93; R 2.41; S 2.05; T 2.3; V 2.25; W 1.49
Q14: A 1.73; C 1.96; D 2.73; E 2.89; G 2.06; H 1.68; I 2.53; K 1.72; L 1.04; M 3.29; N 1.9; P 3.44; R 1.39; S 1.78; T 1.86; Y 1.75
F15: A 2.31; D 4.4; E 3.35; G 2.68; H 3.01; I 2.55; K 3.1; L 2.27; M 2.22; N 2.83; P 3.14; Q 2.56; R 2.69; S 2.73; T 2.96; V 2.12; W 2.06; Y 2.59
V16: A 2.65; C 3.51; D 2.96; E 3.51; F 2.01; G 2.4; H 2.6; I 2.18; K 2.16; L 2.36; M 2.96; N 2.63; P 2.66; Q 2.97; R 2.35; S 2.83; T 2.38; W 4.22; Y 1.75
S17: A 3.26; C 1.83; D 2.39; E 2.53; F 1.72; G 3.15; H 2.54; I 1.23; K 1.89; L 2.33; M 1.57; N 2.19; P 1.81; Q 2.81; R 1.73; T 2.29; V 1.99; W 2.87; Y 2.45
L18: A 2.5; C 2.5; D 2.58; E 3.8; F 1.83; G 2.15; H 3.25; I 2.69; K 2.3; M 2.55; N 3.25; P 2.12; Q 2.88; R 2; S 2.66; T 2.04; V 2.95; W 1.58; Y 1.85
D19: A 1.72; C 1.72; E 2.56; F 1.48; G 1.69; H 2.27; K 2.55; M 2.17; N 2.02; P 2.26; Q 1.98; S 1.59; T 1.59; V 1.12; W 3.02
G20: A 2.41; C 2.41; D 2.43; E 2.55; F 2.6; H 2.55; I 2.16; K 1.72; L 2.58; M 1.76; N 2.32; P 2.13; Q 3.03; R 2.32; S 1.75; T 2.21; V 2.41; W 2.34; Y 1.6
A21: C 1.81; D 3.36; E 3.23; F 1.33; G 2.6; H 2.13; I 1.96; K 2.43; L 1.8; M 2.32; N 2.56; P 1.95; Q 2.03; R 2.66; S 2.15; T 2.54; V 1.92; W 1.73; Y 1.91
G22: A 3; C 1.79; D 3.15; E 3.08; F 2.35; H 2.65; I 2.62; K 1.73; L 1.6; N 2.39; P 3.13; Q 2.26; R 1.87; S 2.47; T 2.09; V 2.29; W 1.84; Y 1.9
K23: A 2.04; C 2.23; D 2.68; E 2.56; F 1.59; G 2.38; H 2.24; I 2.02; L 2.21; M 2.16; N 2.19; P 2.73; Q 2.01; R 2.21; S 2; T 2.55; V 2.12; W 2.28; Y 2.05
T24: A 2.98; C 2.27; D 2.72; E 2.3; F 1.62; G 2.26; H 1.79; I 2.59; K 2.44; L 2.02; M 2; N 2.15; P 2.48; Q 2.86; R 3.12; S 2.19; V 2.33; W 2.24; Y 1.85

Variants of: B2
Assay: as above
Details: c terminus: a fixed tail appended

Protein stability index of substitutions, site by site:
L11: M 3.77; Y 3.5; T 3.6; G 3.43
P16: E 4.72; V 3.35
D14: T 2.94
R15: M 3.05; Y 2.66; F 2.75
R8: V 3.32; Y 2.96; W 2.35
L12: N 3.43; Q 3.27
A7: N 3.74; Y 2.43; R 3.08; P 2.98
A3: K 2.86
A4: I 2.84
G5: K 2.69; A 3
Q19: T 2.49; C 3.27
R20: H 2.52; G 2.74
E24: V 2.45
R17: L 2.73
G23: S 4.39; V 2.78
G2: H 2.56
W18: R 4.93
S6: I 2.27
V1: K 3.69
